Data set [1] deals with the molecule itself. Briefly: SEC-MALS; 400 ul purified protein at 1.4 mg/ml on Superdex 200 10/300 in GF buffer (20 mM Tris pH 7.0, 0.1 M NaCl, 2% glycerol, 0.2 mM TCEP); also the UMP-freed sample and the sample pre-incubated with PALA (Supplementary Fig. 4). A general note: SEC sorts molecules by how far they enter the pores of the column.
Data set [2] concerns the molecule itself. The data set can be described thus: crystal structure; sitting-drop vapor diffusion at room temperature, PEG 3350 conditions; with UMP, apo, with PALA, with PALA and CP, with CP; molecular replacement with PDB 5G1O.

B1: Arabidopsis aspartate transcarbamoylase, construct spanning aa 82-390 (atATC) (enzyme, Arabidopsis thaliana, UniProt P49077 82-390, looked up)
chain: FELSDVIEGKQFDREMLSAIFDVAREMEKIEKSSSQSEILKGYLMATLFYEPSTRTRLSFESAMKRLGGEVLTTENAREFSSAAKGETLEDTIRTVEGYSDIIVMRHFESGAARKAAATANIPVINAGDGPGEHPTQALLDVYTIQSEIGKLDGISVALVGDLANGRTVRSLAYLLAKFKDVKIYFVSPEIVKMKDDIKDYLTSSGVEWEESSDLMEVASKCDVVYQTRIQRERFGERLDLYEAARGKYIVDKDLLGVMQKKAIIMHPLPRLDEITADVDADPRAAYFRQAKNGLFIRMALLKLLLVGW
notes: aspartate transcarbamoylase (ATC; pyrB; At3g20330), Arabidopsis thaliana, aa 82-390 of the 390 aa precursor, i.e. without the N-terminal chloroplast transit peptide; Homotrimer; As purified it carries UMP captured during expression; a UMP-freed form was also made; also called WT; recombinant ATC; source: E. coli BLR(DE3)-pLysS, purified (Ni-sepharose, size-exclusion chromatography); not shown: …
Take B1: the stoichiometry N (commonly the number of molecules, sites or subunits per partner or assembly) in data set [1] was determined as 3.

B2: atATC mutant F161A (enzyme, Arabidopsis thaliana, UniProt P49077 82-390, looked up)
chain: FELSDVIEGKQFDREMLSAIFDVAREMEKIEKSSSQSEILKGYLMATLFYEPSTRTRLSFESAMKRLGGEVLTTENAREASSAAKGETLEDTIRTVEGYSDIIVMRHFESGAARKAAATANIPVINAGDGPGEHPTQALLDVYTIQSEIGKLDGISVALVGDLANGRTVRSLAYLLAKFKDVKIYFVSPEIVKMKDDIKDYLTSSGVEWEESSDLMEVASKCDVVYQTRIQRERFGERLDLYEAARGKYIVDKDLLGVMQKKAIIMHPLPRLDEITADVDADPRAAYFRQAKNGLFIRMALLKLLLVGW
notes: aspartate transcarbamoylase (ATC; pyrB; At3g20330), Arabidopsis thaliana, aa 82-390 of the 390 aa precursor, with F161A in the CP-loop; Same construct as m1 with the point mutation F161A, made by site-directed mutagenesis; also called atATC-F161A; source: E. coli BLR(DE3)-pLysS, purified (Ni-sepharose, size-exclusion chromatography); not shown: 2.6 kDa fusion tag (from a modified pET28a plasmid)
In the case of B2, in data set [2], the binding result was “binds”.

(Values after paper doi:10.1101/2020.07.17.208231, “UMP inhibition and sequential firing in aspartate transcarbamoylase open ways to regulate plant growth” (bioRxiv, 2020).)
